Results: patent publication US20220220224A1 (Hoffmann-La Roche, published 2022)
Values belong to the binder of their own block, whether it stands above or below them.

What was measured:
[1] = target: T1, recombinant biotinylated monomeric Fc fusion of human Folate Receptor 3 (hu FolR3 ECD-AcTev-Fcknob-Avi tag … (human, UniProt P0DOX5 223-449 = IgG part, biotin on the C-terminal Avi tag)); assay: SPR Biacore, single injection on immobilized antigen-Fc
T1 construct: also called FolR3-Fc
Outline: (§1)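 Biacore T200 at 25 °C in HBS-EP (HEPES pH 7.4). Biotinylated FolR-Fc fusions captured on SA chip at about 300-400 RU. IgGs injected once at 500 nM for 60 s to assess cross-reactivity and specificity.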

[2] = target: T2, recombinant biotinylated monomeric Fc fusion of human Folate Receptor 1 (huFolR1 ECD-AcTev-Fcknob-Avi tag … (human, UniProt P0DOX5 223-449 = IgG part, biotin on the C-terminal Avi tag)); assay: as above
T2 construct: also called huFolR1-Fc; human FolR1-Fc
Outline: as §1

[3] = target: T3, recombinant biotinylated monomeric Fc fusion of human Folate Receptor 2 (hu FolR2 ECD-AcTev-Fcknob-Avi tag … (human, UniProt P0DOX5 223-449 = IgG part, biotin on the C-terminal Avi tag)); assay: as above
T3 construct: also called FolR2-Fc
Outline: as §1

[4] = target: T4, recombinant biotinylated monomeric Fc fusion of cynomolgus Folate Receptor 1 (cy FolR1 ECD-AcTev-Fcknob-Avi … (cynomolgus, UniProt P0DOX5 223-449 = IgG part, biotin on the C-terminal Avi tag)); assay: as above
T4 construct: also called cyFolR1-Fc; cyno FolR1
Outline: as §1

[5] = target: T5, human FolR1 expressed on cells (HeLa, SKOV3, HT-29, transfected HEK cells) (human, UniProt P15328 25-234); assay: flow cytometry on HeLa cells
T5 construct: whole, on cells; also called FolR1 on HeLa cells; human FolR1 on cells
T5 sequence (P15328 25-234): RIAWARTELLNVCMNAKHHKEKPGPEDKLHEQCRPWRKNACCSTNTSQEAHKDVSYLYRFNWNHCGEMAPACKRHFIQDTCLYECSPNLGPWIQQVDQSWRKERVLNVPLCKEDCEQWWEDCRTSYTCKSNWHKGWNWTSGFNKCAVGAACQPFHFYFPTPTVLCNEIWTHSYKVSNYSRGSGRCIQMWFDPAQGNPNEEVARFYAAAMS

[6] = target: T2, recombinant biotinylated monomeric Fc …; assay: SPR Biacore, avidity (bivalent, apparent KD), antigen-Fc on SA chip
Method: (§2) The avidity of the interaction between the anti-FolR1 IgGs or T cell bispecifics and the recombinant folate receptors was determined as described below (Table 38).
(§3) Recombinant biotinylated monomeric Fc fusions of human, cynomolgus and murine Folate Receptor 1 (FolR1-Fc) were directly coupled on a SA chip using the standard coupling instruction (Biacore, Freiburg/Germany). The immobilization level was about 160. The anti-FolR1 IgGs or T cell bispecifics were passed at a concentration range from 3.7 to 900 nM with a flow of 30 μL/minutes through the flow cells over 180 seconds. The dissociation was monitored for 600 seconds. Bulk refractive index differences were corrected for by subtracting the response obtained on reference flow cell immobilized with recombinant biotinylated murine IL2 receptor Fc fusion. The binding curves resulting from the bivalent binding of the IgG or T cell bispecifics were approximated to a 1:1 Langmuir binding (even though it is a 1:2 binding) and fitted with that model to get an apparent KD representing the avidity of the bivalent binding. The apparent avidity constants for the interactions were derived from the rate constants of the fitting using the Bia Evaluation software (GE Healthcare).

[7] = target: T4, recombinant biotinylated monomeric Fc …; assay: as above
Method: as §2, §3

[8] = target: T6, recombinant biotinylated monomeric Fc fusion of murine Folate Receptor 1 (mu FolR1 ECD-AcTev-Fcknob-Avitag … (murine, UniProt P0DOX5 223-449 = IgG part, biotin on the C-terminal Avi tag)); assay: SPR Biacore, avidity set-up, antigen-Fc on SA chip
T6 construct: also called muFolR1-Fc; murine FolR1
Method: as §2, §3

[9] = target: T2, recombinant biotinylated monomeric Fc …; assay: SPR Biacore, affinity (monovalent), antibody captured via anti-Fab
Method: (§4) The affinity of the interaction between the anti-FolR1 IgGs or the T cell bispecifics and the recombinant folate receptors was determined as described below (Table 39).
(§5) For affinity measurement, direct coupling of around 10000 resonance units (RU) of the anti-human Fab specific antibody (Fab capture kit, GE Healthcare) was performed on a CM5 chip at pH 5.0 using the standard amine coupling kit (GE Healthcare). Anti-FolR1 IgGs or T cell bispecifics were captured at 20 nM with a flow rate of 10 μl/min for 40 sec, the reference flow cell was left without capture. Dilution series (12.35 to 3000 nM) of human and cyno Folate Receptor 1 Fc fusion were passed on all flow cells at 30 μl/min for 240 sec to record the association phase. The dissociation phase was monitored for 300 s and triggered by switching from the sample solution to HBS-EP. The chip surface was regenerated after every cycle using a double injection of 60 sec 10 mM Glycine-HCl pH 1.5. Bulk refractive index differences were corrected for by subtracting the response obtained on the reference flow cell 1. The affinity constants for the interactions were derived from the rate constants by fitting to a 1:1 Langmuir binding using the Bia Evaluation software (GE Healthcare).

[10] = target: T4, recombinant biotinylated monomeric Fc …; assay: as above
Method: as §4, §5

[11] = target: T6, recombinant biotinylated monomeric Fc …; assay: SPR Biacore, single injection on immobilized antigen-Fc
Outline: as §1

[12] = target: T5, human FolR1 expressed on cells (HeLa, …); assay: flow cytometry on transfected HEK cells
[13] = target: T7, human FolR2 on transfected HEK cells (human, UniProt P14207 17-230); assay: flow cytometry on transfected HEK cells
T7 construct: whole, on cells
T7 sequence (P14207 17-230): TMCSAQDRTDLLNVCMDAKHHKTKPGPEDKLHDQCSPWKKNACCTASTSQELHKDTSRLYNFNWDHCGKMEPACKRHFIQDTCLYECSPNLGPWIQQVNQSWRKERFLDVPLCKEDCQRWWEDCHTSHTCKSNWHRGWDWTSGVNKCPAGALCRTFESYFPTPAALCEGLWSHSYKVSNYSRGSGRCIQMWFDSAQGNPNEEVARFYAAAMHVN

binding result [1]: no binding (tested: 500 nM)
binding result [2]: no binding (tested: 500 nM)
binding result [3]: no binding (tested: 500 nM)
binding result [4]: no binding (tested: 500 nM)
binding result [5]: no binding
B1: 14E4 IgG (antibody, V domains shown)
VH: not shown
VL: EIVLTQSPGTLSLSPGERATLSCRASQSVSSSYLAWYQQKPGQAPRLLIYGASSRATGIPDRFSGSGSGTDSTLTISRLEPEDFAVYYCQQPTSSPITFGQGTKVEIK
notes: human IgG1

Kd [6]: 3.4 nM
koff [6]: 0.000545 s⁻¹
kon [6]: 162000 M⁻¹ s⁻¹
Kd [7]: 2.5 nM
koff [7]: 0.00747 s⁻¹
kon [7]: 2.98e+06 M⁻¹ s⁻¹
binding result [8]: no binding
Kd [9]: 95 nM
koff [9]: 0.00227 s⁻¹
kon [9]: 24000 M⁻¹ s⁻¹
Kd [10]: 530 nM
koff [10]: 0.012 s⁻¹
kon [10]: 22500 M⁻¹ s⁻¹
B2: 16D5 D52dE IgG (antibody, V domains shown)
VH: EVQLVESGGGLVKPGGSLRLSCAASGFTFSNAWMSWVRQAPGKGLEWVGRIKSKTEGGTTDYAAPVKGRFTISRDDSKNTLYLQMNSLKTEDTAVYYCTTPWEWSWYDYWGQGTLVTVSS
VL: QAVVTQEPSLTVSPGGTVTLTCGSSTGAVTTSNYANWVQEKPGQAFRGLIGGTNKRAPGTPARFSGSLLGGKAALTLSGAQPEDEAEYYCALWYSNLWVFGGGTKLTVL
notes: IgG

Kd [6]: 9.2 nM
koff [6]: 0.000775 s⁻¹
kon [6]: 84000 M⁻¹ s⁻¹
Kd [7]: 5 nM
koff [7]: 0.00204 s⁻¹
kon [7]: 412000 M⁻¹ s⁻¹
binding result [8]: no binding
Kd [9]: 230 nM
koff [9]: 0.00162 s⁻¹
kon [9]: 6970 M⁻¹ s⁻¹
Kd [10]: 410 nM
koff [10]: 0.00332 s⁻¹
kon [10]: 8200 M⁻¹ s⁻¹
B3: 16D5 D52dQ IgG (antibody, V domains shown)
VH: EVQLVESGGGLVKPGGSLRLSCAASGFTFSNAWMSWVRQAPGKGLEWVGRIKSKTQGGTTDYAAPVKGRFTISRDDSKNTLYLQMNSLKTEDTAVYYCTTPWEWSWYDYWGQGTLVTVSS
VL: B2 VL
notes: IgG

binding result [11]: no binding (tested: 500 nM)
binding result [1]: no binding (tested: 500 nM)
binding result [3]: no binding (tested: 500 nM)
binding result [12]: binds
binding result [13]: no binding
B4: 9D11 IgG (antibody, V domains shown)
VH: QVQLVQSGAEVKKPGASVKVSCKASGYTFTSYYMHWVRQAPGQGLEWMGIINPSGGPTSYAQKFQGRVTMTRDTSTSTVYMELSSLRSEDTAVYYCARGDFAWLDYWGQGTLVTVSS
VL: not shown
notes: human IgG1
